PMC2880635

Substrate: O=[N+]([O-])c1ccc(OP(=O)(O)O)cc1
Assay: purified protein, by the assay type
Details: other: substrate pNPP
[1] = Sts-2PGM(E481V), pH 5.0, 37 °C, pH 5.0
[2] = Sts-2PGM(E481V), pH 7.5, 37 °C, pH 7.5
[3] = Sts-2PGM(S552A/S582Y), pH 5.0, 37 °C, pH 5.0
[4] = Sts-2PGM(S552A/S582Y), pH 7.5, 37 °C, pH 7.5
[5] = Sts-2PGM(Q372V/S582Y), pH 7.5, 37 °C, pH 7.5
[6] = Sts-2PGM wild-type, pH 5.0, 37 °C, pH 5.0
[7] = Sts-2PGM wild-type, pH 7.5, 37 °C, pH 7.5
[8] = Sts-2PGM(A446S/S552A), pH 7.5, 37 °C, pH 7.5
[9] = Sts-1PGM, pH 5.0, 37 °C, pH 5.0
[10] = Sts-1PGM, pH 7.5, 37 °C, pH 7.5

B1: Sts-2PGM(E481V) (Mus musculus; E481V) (protein)
chain: ATISRRGILVVRHGERVDQVFGKSWLQQCTTADGKYYRPDLNFPRSLPRRSNGIKDFENDPPLSSCGIFQARLAGEALLDSGVRVTAVFASPALRCVQTAKHILEELKLEKKLKIRVEPGIFEWMKWVASKATLTFLTLEELKEANFNVDLDYRPALPRCSLMPAESYDQYVERCAVSMGQIINTCPQDMGITLIVSHSSALDSCTRPLLGLPPRECGDFAQLVRKIPSLGMCFCEENREDGKWDLVNPPVKTLTHGANSVFNWRNWISSN
B1 was tested, and the Km [1] was 200 ± 20 µM, the kcat [1] was 0.65 s⁻¹ and the kcat/Km [1] was 3100 M⁻¹ s⁻¹. For the same protein, the Km [2] was 1000 ± 150 µM, the kcat [2] was 0.15 s⁻¹ and the kcat/Km [2] was 150 M⁻¹ s⁻¹.

B2: Sts-2PGM(S552A/S582Y) (Mus musculus; S552A/S582Y) (protein)
chain: ATISRRGILVVRHGERVDQVFGKSWLQQCTTADGKYYRPDLNFPRSLPRRSNGIKDFENDPPLSSCGIFQARLAGEALLDSGVRVTAVFASPALRCVQTAKHILEELKLEKKLKIRVEPGIFEWMKWEASKATLTFLTLEELKEANFNVDLDYRPALPRCSLMPAESYDQYVERCAVSMGQIINTCPQDMGITLIVSHASALDSCTRPLLGLPPRECGDFAQLVRKIPYLGMCFCEENREDGKWDLVNPPVKTLTHGANSVFNWRNWISSN
Work on B2 yielded a Km [3] of 620 ± 100 µM, a kcat [3] of 2.9 s⁻¹ and a kcat/Km [3] of 4700 M⁻¹ s⁻¹. The Km [4] was 1900 ± 200 µM, the kcat [4] was 0.43 s⁻¹ and the kcat/Km [4] was 226 M⁻¹ s⁻¹.

B3: Sts-2PGM(Q372V/S582Y) (Mus musculus; Q372V/S582Y) (protein)
chain: ATISRRGILVVRHGERVDVVFGKSWLQQCTTADGKYYRPDLNFPRSLPRRSNGIKDFENDPPLSSCGIFQARLAGEALLDSGVRVTAVFASPALRCVQTAKHILEELKLEKKLKIRVEPGIFEWMKWEASKATLTFLTLEELKEANFNVDLDYRPALPRCSLMPAESYDQYVERCAVSMGQIINTCPQDMGITLIVSHSSALDSCTRPLLGLPPRECGDFAQLVRKIPYLGMCFCEENREDGKWDLVNPPVKTLTHGANSVFNWRNWISSN
B3 was tested, and the Km [5] was 700 ± 100 µM, the kcat [5] was 0.4 s⁻¹ and the kcat/Km [5] was 571 M⁻¹ s⁻¹.

B4: Sts-2PGM (Mus musculus) (protein)
chain: ATISRRGILVVRHGERVDQVFGKSWLQQCTTADGKYYRPDLNFPRSLPRRSNGIKDFENDPPLSSCGIFQARLAGEALLDSGVRVTAVFASPALRCVQTAKHILEELKLEKKLKIRVEPGIFEWMKWEASKATLTFLTLEELKEANFNVDLDYRPALPRCSLMPAESYDQYVERCAVSMGQIINTCPQDMGITLIVSHSSALDSCTRPLLGLPPRECGDFAQLVRKIPSLGMCFCEENREDGKWDLVNPPVKTLTHGANSVFNWRNWISSN
With B4 the Km [6] was 1500 ± 80 µM, the kcat [6] was 0.3 s⁻¹ and the kcat/Km [6] was 200 M⁻¹ s⁻¹. It also gave a Km [7] of 2000 ± 130 µM, a kcat [7] of 0.03 s⁻¹ and a kcat/Km [7] of 15 M⁻¹ s⁻¹.

B5: Sts-2PGM(A446S/S552A) (Mus musculus; A446S/S552A) (protein)
chain: ATISRRGILVVRHGERVDQVFGKSWLQQCTTADGKYYRPDLNFPRSLPRRSNGIKDFENDPPLSSCGIFQARLAGEALLDSGVRVTAVFASPSLRCVQTAKHILEELKLEKKLKIRVEPGIFEWMKWEASKATLTFLTLEELKEANFNVDLDYRPALPRCSLMPAESYDQYVERCAVSMGQIINTCPQDMGITLIVSHASALDSCTRPLLGLPPRECGDFAQLVRKIPSLGMCFCEENREDGKWDLVNPPVKTLTHGANSVFNWRNWISSN
B5 gave a Km [8] of 640 ± 80 µM, a kcat [8] of 0.27 s⁻¹ and a kcat/Km [8] of 420 M⁻¹ s⁻¹.

B6: Sts-1PGM (Mus musculus) (protein)
chain: GPQKRCLFVCRHGERMDVVFGKYWLSQCFDAKGRYIRTNLNMPHSLPQRSGGFRDYEKDAPITVFGCMQARLVGEALLESNTVIDHVYCSPSLRCVQTAHNILKGLQQDNHLKIRVEPGLFEWTKWVAGSTLPAWIPPSELAAANLSVDTTYRPHIPVSKLAISESYDTYINRSFQVTKEIISECKSKGNNILIVAHASSLEACTCQLQGLSPQNSKDFVQMVRKIPYLGFCSCEELGETGIWQLTDPPILPLTHGPTGGFNWRETLLQE
For B6, the Km [9] was 20 ± 9 µM, the kcat [9] was 63.4 s⁻¹ and the kcat/Km [9] was 3.15e+06 M⁻¹ s⁻¹. The Km [10] was 500 ± 60 µM, the kcat [10] was 70 s⁻¹ and the kcat/Km [10] was 141000 M⁻¹ s⁻¹.
